Results taken from patent US20090214427A1, “Novel peptides” (Licentia OY, priority 2004, published 2009).
Positions of bridges follow the written chain, without caps; N, C: chain ends. No end group written: not given here.

Legend:
hK2 [1] = target: T1, hK2 (Homo sapiens, UniProt P20151); assay: Effect of the peptides on the enzyme activity of hK2 (chromogenic substrate S-2302); format: biochemical; conditions: for inhibition (percent inhibition of hK2): enzymatic activity of hK2, chromogenic substrate, 405 nm; for inhibition of hK2 enzyme activity: 0.17 μM hK2, 100-fold molar excess of peptide; for effect on the enzyme activity of hK2: incubation of hK2 with synthetic peptide (FIG. 2)
T1 construct: made in house
Procedure: “Inhibition”, as used in the present context, stands for an inhibitory action on the proteolytic activity of hK2.
(§1) The effect of the peptides on the enzyme activity of hK2 was studied by using the chromogenic substrate S-2302 (H-D-Pro-Phe-Arg-pNA). HK2 (0.17 μM) was incubated with a 100-1000-fold molar excess of synthetic peptides in 20 mM Tris-buffer pH 8.0 containing 0.1% BSA for 30 minutes at room temperature. After addition of the substrate to a final concentration of 0.2 mM the absorbance was monitored at 405 nm at 5-10 min intervals for 1 h on a Victor 1420 Multilabel fluorometer (PerkinElmer-Wallac, Turku, Finland)

urokinase = urokinase (Homo sapiens, UniProt P00749); assay: Specificity: effect on enzyme activity of urokinase (substrate S-2444); format: biochemical
Procedure: as §1
(§2) The specificity of the peptides was analyzed by studying their effect on the activity of other serine proteases including α-chylotrypsin, bovine trypsin, human trypsin 1, trypsin 2 and trypsin 3, urokinase, thrombin, plasmin, plasma kallikrein and PSA. The assay was as described above for hK2 except that the substrate for PSA and α-chymotrypsin was S-2586 (MeO-Suc-Arg-Pro-Tyr-pNA)(Chromogenix), S-2444 for urokinase, S-2238 for thrombin, S-2403 for plasmin, S-2302 for plasma kallikrein and that for various forms of trypsin was S-2222 (CO-Ile-Glu-(OR)-Gly-Arg-pNA)(Chromogenix).

α-chymotrypsin = assay: Specificity: effect on enzyme activity of α-chymotrypsin (substrate S-2586); format: biochemical
Procedure: as §1, §2

plasmin = target: T2, plasmin (Homo sapiens, UniProt P00747); assay: Specificity: effect on enzyme activity of plasmin (substrate S-2403); format: biochemical
T2 construct: Human plasmin, thrombin and plasma kallikrein were from Sigma; purchased Sigma
Procedure: as §1, §2

trypsin 3 = target: T3, trypsin 3 (Homo sapiens, UniProt P35030); assay: Specificity: effect on enzyme activity of human trypsin 3 (substrate S-2222); format: biochemical
T3 construct: made in house
T3 sequence (P35030 1-304): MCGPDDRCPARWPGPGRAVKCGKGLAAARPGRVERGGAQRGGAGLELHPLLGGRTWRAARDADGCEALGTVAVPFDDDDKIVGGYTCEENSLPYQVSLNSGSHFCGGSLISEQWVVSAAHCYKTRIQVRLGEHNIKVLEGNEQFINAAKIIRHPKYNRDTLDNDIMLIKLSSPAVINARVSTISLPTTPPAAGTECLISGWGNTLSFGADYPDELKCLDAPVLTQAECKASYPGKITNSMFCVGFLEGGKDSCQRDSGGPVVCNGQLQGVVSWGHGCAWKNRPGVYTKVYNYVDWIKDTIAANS
Procedure: as §1, §2

bovine trypsin = target: T4, bovine trypsin (Bos taurus, UniProt P00760); assay: Specificity: effect on enzyme activity of bovine trypsin (substrate S-2222); format: biochemical
T4 construct: purchased Athens Research and Technology, Athens, Ga., USA
T4 sequence (P00760 24-246): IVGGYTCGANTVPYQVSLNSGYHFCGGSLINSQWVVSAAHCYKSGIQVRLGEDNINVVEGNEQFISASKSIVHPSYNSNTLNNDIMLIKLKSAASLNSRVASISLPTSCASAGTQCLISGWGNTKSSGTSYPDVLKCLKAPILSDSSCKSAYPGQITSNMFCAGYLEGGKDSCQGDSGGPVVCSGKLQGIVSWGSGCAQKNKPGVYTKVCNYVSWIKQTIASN
Procedure: as §1, §2

human trypsin 1 = target: T5, human trypsin 1 (Homo sapiens, UniProt P07477); assay: Specificity: effect on enzyme activity of human trypsin 1 (substrate S-2222); format: biochemical
T5 construct: made in house
Procedure: as §1, §2

plasma kallikrein = target: T6, plasma kallikrein (Homo sapiens, UniProt P03952); assay: Specificity: effect on enzyme activity of plasma kallikrein (substrate S-2302); format: biochemical
T6 construct: Human plasmin, thrombin and plasma kallikrein were from Sigma; purchased Sigma
Procedure: as §1, §2

PSA = target: T7, PSA (Homo sapiens, UniProt P07288); assay: Specificity: effect on enzyme activity of PSA (substrate S-2586); format: biochemical
T7 construct: PSA was purified from human seminal plasma as described (Zhang et al. 1995); from tissue; host or cells: human seminal plasma
Procedure: as §1, §2

hK2 [2] = target: T1, hK2; assay: Cross-inhibition test: inhibition of phage binding to captured hK2 by synthetic peptides (IFMA); conditions: synthetic peptide 5 μM, FIG. 1
Procedure: The phage IFMA was performed essentially as described (Wu, Leinonen et al. 2000). In this assay, 50 ng of hK2 in 200 μL of assay buffer was captured onto wells coated with MAb 5E4. After washing, 2.5 μL of phage (10^8-10^9 infectious particles) and 200 μL assay buffer were added to wells. After incubation for 1 h, the wells were washed and filled with 200 μL of assay buffer containing 100 ng Eu-labeled anti-phage polyclonal antibody recognizing the M13 coat protein of the phage. After incubation for 60 min, the wells were washed 4 times, and enhancement solution (Perkin Elmer-Wallac) was added. The fluorescence was quantified with a Victor fluorometer in time resolved mode (Perkin Elmer-Wallac).
The relative binding sites of the peptides on hK2 were mapped by competition experiments with chemically synthesized and phage peptides. The protocol was based on the IFMA method described above except that phages and the synthetic peptides were reacted together with hK2. Briefly, each of the synthetic peptides at 5 μM concentration was added into the wells in which hK2 had been captured by MAb 5E4. After incubation for 30 min each phage was added. After 1 h incubation, the wells were washed and the assay was as described above for IFMA.

thrombin = target: T8, thrombin (Homo sapiens, UniProt P00734); assay: Specificity: effect on enzyme activity of thrombin (substrate S-2238); format: biochemical
T8 construct: Human plasmin, thrombin and plasma kallikrein were from Sigma; purchased Sigma
Procedure: as §1, §2

trypsin 2 = target: T9, trypsin 2 (Homo sapiens, UniProt P07478); assay: Specificity: effect on enzyme activity of human trypsin 2 (substrate S-2222); format: biochemical
T9 construct: made in house
Procedure: as §1, §2

hK2 [3] = target: T1, hK2; assay: Effect of the peptides on the enzyme activity of hK2 (chromogenic substrate S-2302); format: biochemical; conditions: S-2302 200 μM, 0.17 μM hK2, 0-400 μM peptide; read-out: IC50 for hK2 inhibition

T1 sequence (P20151 25-261): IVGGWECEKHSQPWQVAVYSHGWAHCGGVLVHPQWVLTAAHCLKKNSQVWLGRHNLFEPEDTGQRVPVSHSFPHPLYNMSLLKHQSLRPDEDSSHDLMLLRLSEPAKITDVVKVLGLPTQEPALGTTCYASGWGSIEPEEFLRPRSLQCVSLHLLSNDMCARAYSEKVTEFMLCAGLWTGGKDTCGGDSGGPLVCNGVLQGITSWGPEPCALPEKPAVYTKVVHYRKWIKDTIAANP
T9 sequence (P07478 24-247): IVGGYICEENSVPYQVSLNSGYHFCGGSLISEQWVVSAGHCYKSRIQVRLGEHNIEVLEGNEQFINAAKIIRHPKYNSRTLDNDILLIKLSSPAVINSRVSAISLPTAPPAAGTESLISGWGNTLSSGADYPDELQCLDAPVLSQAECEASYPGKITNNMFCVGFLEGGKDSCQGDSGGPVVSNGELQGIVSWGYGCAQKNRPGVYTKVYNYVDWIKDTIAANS
T2 sequence (P00747 97-580 partner limits assumed): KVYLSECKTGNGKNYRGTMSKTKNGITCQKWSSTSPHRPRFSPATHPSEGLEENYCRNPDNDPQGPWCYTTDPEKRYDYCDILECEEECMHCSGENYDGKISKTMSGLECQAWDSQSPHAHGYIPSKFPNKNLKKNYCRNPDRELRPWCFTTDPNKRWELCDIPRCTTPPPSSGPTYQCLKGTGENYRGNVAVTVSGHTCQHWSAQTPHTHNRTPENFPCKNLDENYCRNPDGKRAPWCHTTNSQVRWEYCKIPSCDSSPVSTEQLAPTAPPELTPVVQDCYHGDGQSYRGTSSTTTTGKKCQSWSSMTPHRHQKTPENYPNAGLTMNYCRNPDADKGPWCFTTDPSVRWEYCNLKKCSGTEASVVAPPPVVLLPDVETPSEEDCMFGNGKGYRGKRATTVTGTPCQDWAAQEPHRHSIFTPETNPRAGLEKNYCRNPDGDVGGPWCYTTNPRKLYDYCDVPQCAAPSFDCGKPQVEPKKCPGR
T2 sequence (P00747 581-810 limits assumed): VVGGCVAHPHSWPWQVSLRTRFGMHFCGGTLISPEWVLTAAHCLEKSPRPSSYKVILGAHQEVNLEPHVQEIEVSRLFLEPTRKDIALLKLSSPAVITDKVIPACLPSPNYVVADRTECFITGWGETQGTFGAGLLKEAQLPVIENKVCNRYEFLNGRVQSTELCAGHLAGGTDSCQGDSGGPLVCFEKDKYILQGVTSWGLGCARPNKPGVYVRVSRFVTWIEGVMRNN
T7 sequence (P07288 25-261): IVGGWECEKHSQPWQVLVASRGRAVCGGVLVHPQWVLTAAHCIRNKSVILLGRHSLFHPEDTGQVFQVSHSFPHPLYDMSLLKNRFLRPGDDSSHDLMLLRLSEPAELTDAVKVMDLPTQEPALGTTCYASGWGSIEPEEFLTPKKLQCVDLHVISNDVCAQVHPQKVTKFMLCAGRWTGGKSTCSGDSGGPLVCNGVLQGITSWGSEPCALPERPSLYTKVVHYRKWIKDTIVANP
T6 sequence (P03952 20-390 partner limits assumed): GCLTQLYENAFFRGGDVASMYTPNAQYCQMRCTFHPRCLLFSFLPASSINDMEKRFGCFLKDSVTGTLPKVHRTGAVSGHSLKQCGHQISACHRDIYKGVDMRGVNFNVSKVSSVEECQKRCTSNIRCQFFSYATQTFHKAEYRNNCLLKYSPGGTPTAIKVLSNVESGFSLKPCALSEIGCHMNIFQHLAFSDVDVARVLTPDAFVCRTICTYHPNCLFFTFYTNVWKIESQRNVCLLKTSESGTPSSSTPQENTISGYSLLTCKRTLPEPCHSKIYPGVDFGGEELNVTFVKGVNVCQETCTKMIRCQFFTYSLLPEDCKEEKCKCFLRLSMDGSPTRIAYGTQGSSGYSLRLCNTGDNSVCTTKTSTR
T6 sequence (P03952 391-638 limits assumed): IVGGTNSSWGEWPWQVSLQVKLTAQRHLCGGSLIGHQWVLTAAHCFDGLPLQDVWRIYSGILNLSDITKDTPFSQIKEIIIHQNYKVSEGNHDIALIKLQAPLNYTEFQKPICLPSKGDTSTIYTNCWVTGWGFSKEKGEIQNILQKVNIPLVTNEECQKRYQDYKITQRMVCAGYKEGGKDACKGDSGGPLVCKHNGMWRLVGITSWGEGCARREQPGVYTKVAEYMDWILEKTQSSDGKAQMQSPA

Substance: 15 (GPARRPFPVTAG) [compound 15]
- inhibition (percent inhibition of hK2) (hK2 [1]): 49%

Substance: 31 (GPARRPFPVTAG) [compound 31]
- inhibition (percent inhibition of hK2) (hK2 [1]): 58%

Substance: 55 (SRFKVWWAAG) [compound 55]
- inhibition (percent inhibition of hK2) (hK2 [1]): 79%

Substance: 57 (SRFKVWWAAG) [compound 57]
- inhibition (percent inhibition of hK2) (hK2 [1]): 27%

Substance: 63 (SRFKVWWAAG) [compound 63]
- inhibition (percent inhibition of hK2) (hK2 [1]): 78%

Substance: 64 (SRFKVWWAAG) [compound 64]
- inhibition (percent inhibition of hK2) (hK2 [1]): 85%

Substance: 69 (SRFKVWWG) [compound 69]
- inhibition (percent inhibition of hK2) (hK2 [1]): 79%

Substance: 73 (SRFKVWWG) [compound 73]
- inhibition (percent inhibition of hK2) (hK2 [1]): 82%

Substance: AARRPFPAPS [HK2p02]
- effect on activity of urokinase (urokinase): no inhibition
- effect on activity of α-chymotrypsin (α-chymotrypsin): no inhibition
- effect on activity of plasmin (plasmin): no inhibition
- effect on activity of human trypsin 3 (trypsin 3): no inhibition
- effect on activity of bovine trypsin (bovine trypsin): no inhibition
- inhibition of hK2 enzyme activity (hK2 [1]): slight inhibition
- effect on the enzyme activity of hK2 (hK2 [1]): significant reduction
- effect on activity of human trypsin 1 (human trypsin 1): no inhibition
- effect on activity of plasma kallikrein (plasma kallikrein): no inhibition
- effect on activity of PSA (PSA): no inhibition
- inhibition of the binding of the phage carrying the corresponding peptide (hK2 [2]): inhibited efficiently
- effect on activity of thrombin (thrombin): no inhibition
- effect on activity of human trypsin 2 (trypsin 2): no inhibition

Substance: ARFKVWWAAG [SEQ ID NO 56, A, R ,F, K, V, W, W, A, A, G]
- IC50 (hK2 [3]): 2200 nM
- type of inhibition of hK2 (hK2 [1]; Lineweaver-Burke Plot): competitive inhibitor

Substance: C3AARRPAPAPCG (CAARRPAPAPCG; disulfide 1-11 (inferred)) [BTK144-18c]
- effect of cyclic peptides on hK2 protease activity (hK2 [1]; FIG. 3): slight inhibitory effect

Substance: CFRQGCWVIT [HK2p04]
- effect on the enzyme activity of hK2 (hK2 [1]): did not show any effect

Substance: CYRMPTCMQRD [HK2p06]
- effect on the enzyme activity of hK2 (hK2 [1]): did not show any effect
- inhibition of the binding of the phage carrying the corresponding peptide (hK2 [2]): inhibited efficiently

Substance: FRTCLRSWACM [HK2p05]
- inhibition of the binding of the phage carrying the corresponding peptide (hK2 [2]): not inhibited

Substance: PARRPFPVTA [HK2p03]
- effect on activity of urokinase (urokinase): no inhibition
- effect on activity of α-chymotrypsin (α-chymotrypsin): no inhibition
- effect on activity of plasmin (plasmin): no inhibition
- effect on activity of human trypsin 3 (trypsin 3): no inhibition
- effect on activity of bovine trypsin (bovine trypsin): no inhibition
- inhibition of hK2 enzyme activity (hK2 [1]): slight inhibition
- effect on the enzyme activity of hK2 (hK2 [1]): significant reduction
- effect on activity of human trypsin 1 (human trypsin 1): no inhibition
- effect on activity of plasma kallikrein (plasma kallikrein): no inhibition
- effect on activity of PSA (PSA): no inhibition
- inhibition of the binding of the phage carrying the corresponding peptide (hK2 [2]): inhibited efficiently
- effect on activity of thrombin (thrombin): no inhibition
- effect on activity of human trypsin 2 (trypsin 2): no inhibition

Substance: SRFKVWWAAG-OH [HK2p01, SRFKVWWAAG]
- effect on activity of urokinase (urokinase): no inhibition
- effect on activity of α-chymotrypsin (α-chymotrypsin): no inhibition
- effect on activity of plasmin (plasmin): no inhibition
- effect on activity of human trypsin 3 (trypsin 3): no inhibition
- effect on activity of bovine trypsin (bovine trypsin): no inhibition
- inhibition of hK2 enzyme activity (hK2 [1]): slight inhibition
- effect on the enzyme activity of hK2 (hK2 [1]): significant reduction
- effect on activity of human trypsin 1 (human trypsin 1): no inhibition
- effect on activity of plasma kallikrein (plasma kallikrein): no inhibition
- effect on activity of PSA (PSA): no inhibition
- inhibition of the binding of the phage carrying the corresponding peptide (hK2 [2]): inhibited efficiently
- effect on activity of thrombin (thrombin): no inhibition
- effect on activity of human trypsin 2 (trypsin 2): no inhibition
